This is an account of results in article PMC8063937, “A Novel Cysteine Protease Inhibitor of Naegleria fowleri That Is Specifically Expressed during Encystation and at Mature Cysts” (Pathogens, 2021).

In data set [1] the target is recombinant cathepsin-B-like cysteine protease of N. fowleri (NfCBL) (Naegleria fowleri). The experiment in a line: enzyme inhibition assay (residual activity on a fluorogenic substrate); 10 nM enzyme incubated with 0-100 nM NfCPI in 50 mM sodium acetate pH 6.0, 20 min, RT; substrate Z-LR-MCA in 50 mM sodium acetate pH 5.0 with 10 mM DTT; Ki calculated from IC50 and Km, non-linear regression.

Data set [2] concerns the molecule itself. Put plainly: non-reducing PAGE; purified NfCPI, with 0-10% SDS, without β-mercaptoethanol, with or without heating at 100 °C for 5 min.
The target of the next data set is T1, papain (UniProt P00784 134-345).
T1 construct: Papain, cysteine protease bought from Sigma; source: bought: Sigma
T1 sequence (looked up): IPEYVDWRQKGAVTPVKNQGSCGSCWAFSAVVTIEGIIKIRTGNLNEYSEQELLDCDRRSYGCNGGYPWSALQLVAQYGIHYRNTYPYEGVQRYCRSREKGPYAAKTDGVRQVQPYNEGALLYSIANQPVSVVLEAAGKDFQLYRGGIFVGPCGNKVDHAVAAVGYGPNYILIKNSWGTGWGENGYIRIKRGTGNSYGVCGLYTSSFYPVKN
The experiment in a line: enzyme inhibition assay (residual activity on a fluorogenic substrate); 10 nM enzyme incubated with 0-100 nM NfCPI in 50 mM sodium acetate pH 6.0, 20 min, RT; substrate Z-LR-MCA in 50 mM sodium acetate pH 5.0 with 10 mM DTT; Ki calculated from IC50 and Km, non-linear regression. As to conditions: both partners purified.

Data set [3] has as its target T2, recombinant cathepsin-B cysteine protease of N. fowleri (NfCB) (Naegleria fowleri).
T2 chain: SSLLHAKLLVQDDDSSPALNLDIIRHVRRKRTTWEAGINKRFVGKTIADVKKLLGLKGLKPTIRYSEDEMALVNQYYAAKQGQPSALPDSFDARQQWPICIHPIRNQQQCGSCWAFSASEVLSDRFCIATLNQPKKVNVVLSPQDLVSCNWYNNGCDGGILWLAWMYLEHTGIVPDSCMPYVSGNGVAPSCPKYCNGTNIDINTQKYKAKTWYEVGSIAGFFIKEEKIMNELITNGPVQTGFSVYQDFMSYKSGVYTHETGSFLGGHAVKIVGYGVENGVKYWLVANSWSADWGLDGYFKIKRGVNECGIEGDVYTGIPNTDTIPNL
Described as above. To be noted: both partners purified.

On to “recombinant cysteine protease inhibitor of Naegleria fowleri (NfCPI), lacking the signal peptide (from UniProt A0A6A5BTM4 30-136) (natural protein)”, for which, in data set [1], the Ki (usually a measure of affinity in units of concentration, obtained from inhibition or displacement) was 0.144 nM.

B1: recombinant cysteine protease inhibitor of Naegleria fowleri (NfCPI), lacking the signal peptide (natural protein)
chain: ALPIATNVIPGGRQPISNQTLIEELTTFIPKASSNGVCRVTRVLSAQQQVVAGTIYYLVVEVSTSCDATSSQTFCEKLKIFRPLVTRSVENPQLQLQKEQRVDCNTP
notes: ORF of 136 residues; the forward primer encodes LPIATNV as its first residues, the reverse primer ends at the stop codon; cDNA from strain Carter NF69 (ATCC 30215); also called recombinant NfCPI; source: E. coli M15 (pREP14), pQE-9, purified (Ni-NTA)
For the molecule B1, the stoichiometry N (commonly a count of units in the complex or per binding partner) in data set [2] was found to be 2. Further, the figures for the Ki (with papain; in data set [3]) were 0.259 nM and 0.193 nM, respectively.
